According to the supplement of paper PMC7125110:
± gives the standard error. Fewer inactive variants are shown than the library holds.

B1: glmS ribozyme (parent)
chain: AUAAAAGCGCCAGAACUACAGAAAUGUAGUUGACGAGGAGGAGGUUUAUCGAAUUUUCGGCGGAUGCCUCCAAA

How the values were obtained:
Conditions in all cases: with glucosamine-6-phosphate
[1] = variants of: B1; experiment: self-cleavage kobs at 40 uM GlcN6P; higher = faster cleavage; RNA array
How it was run: (§1)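 Barcoded ribozyme variants on sequenced MiSeq chips were transcribed in situ by E. coli RNA polymerase and followed at 37 °C through a hybridised Cy3 probe. Glucosamine-6-phosphate at 40 μM to 10 mM in HEPES/KCl/Mg(OAc)2 buffer was flowed in, and tiles were imaged over ~14 h. Signals were normalised to baseline and to non-cleaving reference variants, and per-tile medians were fit to one- or two-exponential decays to give kobs. Weighted Michaelis–Menten fits across concentrations gave kcat and KM.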

[2] = variants of: B1; experiment: self-cleavage kobs at 160 uM GlcN6P; higher = faster cleavage; RNA array
How it was run: as §1

[3] = variants of: B1; experiment: self-cleavage kobs at 640 uM GlcN6P; higher = faster cleavage; RNA array
How it was run: as §1

[4] = variants of: B1; experiment: self-cleavage kobs at 10000 uM GlcN6P; higher = faster cleavage; RNA array
How it was run: as §1

[5] = variants of: B1; experiment: self-cleavage kobs at 2500 uM GlcN6P; higher = faster cleavage; RNA array
How it was run: as §1

For AUAAAAGCGCCAGAACUACAGAAAUGUAGCUGACGAGGAGGAGGUUUUUCGAAUUUUCGGCGGAUGCCUCCAAA [U30C A48U], the “self-cleavage kobs at 40 uM GlcN6P” value [1] was under 1e-05 s⁻¹, the “self-cleavage kobs at 160 uM GlcN6P” value [2] was under 1e-05 s⁻¹ and the “self-cleavage kobs at 640 uM GlcN6P” value [3] was under 1e-05 s⁻¹. For the same variant, the “self-cleavage kobs at 10000 uM GlcN6P” value [4] was under 1e-05 s⁻¹.

For AUAAAAGCGGCAGAACUACAGAAAUGUAGUUGACGAGGCGGAGGAUUAUCGAAGUUUCGGCCGAUGCCUCCAAA [C10G A39C U45A U54G G62C], the “self-cleavage kobs at 40 uM GlcN6P” value [1] was under 1e-05 s⁻¹ and the “self-cleavage kobs at 10000 uM GlcN6P” value [4] was under 1e-05 s⁻¹.

With AUAAAGGCGCCAGAACUACAGAAAUGUAGUUUACGAGGAGGAGGUGUAUCGAAUUUUCGGCGGAUGCCUCCAAA [A6G G32U U46G] the “self-cleavage kobs at 40 uM GlcN6P” value [1] was under 1e-05 s⁻¹ and the “self-cleavage kobs at 10000 uM GlcN6P” value [4] was under 1e-05 s⁻¹.

With AUAAAAGCGCCAGAACUACAGAAAUGUAGUUGACGAGCAGGAGGUUUAUCGAAUUUUCGGCGGACGCCUCCAAA [G38C U65C] the “self-cleavage kobs at 40 uM GlcN6P” value [1] was under 1e-05 s⁻¹, the “self-cleavage kobs at 160 uM GlcN6P” value [2] was under 1e-05 s⁻¹ and the “self-cleavage kobs at 640 uM GlcN6P” value [3] was under 1e-05 s⁻¹. The “self-cleavage kobs at 10000 uM GlcN6P” value [4] was under 1e-05 s⁻¹.

AUAAAAGCGCCAGAACUACAGAAAUGUAGUUGGCGAGGACGAGGUUUAUCGAAUUGUCGGCGGAUGCCUCCAAA [A33G G40C U56G] was tested, and the “self-cleavage kobs at 40 uM GlcN6P” value [1] was under 1e-05 s⁻¹.

With AUAAAAGCGCCAGAACUACAGAAAUGUAGUUGACGAGGAGGAGGUUGAUCGAAUUUUCGUCGGAUGCCUCCAAA [U47G G60U] the “self-cleavage kobs at 40 uM GlcN6P” value [1] was under 1e-05 s⁻¹, the “self-cleavage kobs at 160 uM GlcN6P” value [2] was under 1e-05 s⁻¹ and the “self-cleavage kobs at 2500 uM GlcN6P” value [5] was under 1e-05 s⁻¹.

AUAAAAGCGCAAGAACUACAGAAAUGUAGUUGACGAGGAGGAGGUGUAUCGCAUUUUCGGCGGAUGCCUCCAAA [C11A U46G A52C] was tested, and the “self-cleavage kobs at 40 uM GlcN6P” value [1] was under 1e-05 s⁻¹ and the “self-cleavage kobs at 10000 uM GlcN6P” value [4] was under 1e-05 s⁻¹.

With AUAAAAGCGCCAGAACUACAGAAAUGUAGUUGCCGAGGAGGAGCUUUAUCGAAUUUACGGCGGUUGCCUCCAAA [A33C G44C U57A A64U] the “self-cleavage kobs at 40 uM GlcN6P” value [1] was under 1e-05 s⁻¹, the “self-cleavage kobs at 160 uM GlcN6P” value [2] was under 1e-05 s⁻¹ and the “self-cleavage kobs at 640 uM GlcN6P” value [3] was under 1e-05 s⁻¹. The “self-cleavage kobs at 2500 uM GlcN6P” value [5] was under 1e-05 s⁻¹ and the “self-cleavage kobs at 10000 uM GlcN6P” value [4] was under 1e-05 s⁻¹.

With AUAAAAGCGCUAGAACUACAGAAAUGUAGUUGACGAGGAGGAGGUUUAUGGAAUUUUCGGCGGAUGCGUCCAAA [C11U C50G C68G] the “self-cleavage kobs at 40 uM GlcN6P” value [1] was 6.75e-05 ± 1.4e-05 s⁻¹, the “self-cleavage kobs at 640 uM GlcN6P” value [3] was 0.000123 ± 1.8e-05 s⁻¹ and the “self-cleavage kobs at 2500 uM GlcN6P” value [5] was 0.000141 ± 2.8e-05 s⁻¹.

With AUAAAAGCGCCAGAACUACAGAAAUGUAGUUGAAGAGGAGGACGUUUGUCGAAUUUUCGGCGGAUGCCUCCAAA [C34A G43C A48G] the “self-cleavage kobs at 40 uM GlcN6P” value [1] was under 1e-05 s⁻¹.

In the case of AUAAAAGCGCCAGAACUACAGAAAUGUAGUUGACGAGGAGGAAGUUUAUCGAAUUUUAGGCGGAUGCCUCCAAA [G43A C58A], the “self-cleavage kobs at 40 uM GlcN6P” value [1] is reported as under 1e-05 s⁻¹, the “self-cleavage kobs at 160 uM GlcN6P” value [2] is reported as under 1e-05 s⁻¹ and the “self-cleavage kobs at 640 uM GlcN6P” value [3] is reported as under 1e-05 s⁻¹. For the same variant, the “self-cleavage kobs at 2500 uM GlcN6P” value [5] was under 1e-05 s⁻¹ and the “self-cleavage kobs at 10000 uM GlcN6P” value [4] was under 1e-05 s⁻¹.

With AUAAAAGCGCCAGAACUACAGAAAUGUAGUUGACGAGGAGGAGGUUUAUCGAGUUUUCGGCGGAUGCCUCUAAA [A53G C71U] the “self-cleavage kobs at 40 uM GlcN6P” value [1] was 0.000921 ± 0.00014 s⁻¹, the “self-cleavage kobs at 160 uM GlcN6P” value [2] was 0.0017 ± 0.00029 s⁻¹ and the “self-cleavage kobs at 640 uM GlcN6P” value [3] was 0.00661 ± 0.0013 s⁻¹. The “self-cleavage kobs at 10000 uM GlcN6P” value [4] was 0.0402 ± 0.013 s⁻¹.
